Assay results from patent US20030119038A1, “NARC1, novel subtilase-like homologs” (priority 1999, published 2003).

Key:
[1] = test system: NARC1 transfectants
Procedure: Following transient expression of this construct in CGNs, the percentage of GFP positive and GFP negative cells undergoing apoptosis was determined by Laser-Scanning Cytometry.
Following transient expression of the wild-type and point-mutant NARC1 constructs in CGNs, the percentage of GFP-positive cells undergoing apoptosis was determined by Laser-Scanning Cytometry.
(§1) The serine protease inhibitors Aminoethyl-benzene sulfonyl fluoride, an irreversible inhibitor (AEBSF), Aprotinin, a reversible inhibitor, and N-Tosyl-lysine-chloromethylketone (TLCK, an inhibitor known to covalently bind to serine proteases) were investigated to see if any of these reagents can rescue the cell death effects of wild-type NARC1. Caspase 9 transfection was included to test for specificity of any rescue effects.
CGNs were transfected with each of the C-terminal truncation mutants described above. Following transient expression of these constructs, the percentage of GFP positive cells undergoing apoptosis was determined by Laser-Scanning Cytometry.

[2] = test system: Caspase 9 transfection; details: 24-hour exposure
Excerpt: as §1

[3] = target: furin (Homo sapiens, UniProt P09958); details: cited from earlier work
Sequence of furin (P09958 108-794, species assumed): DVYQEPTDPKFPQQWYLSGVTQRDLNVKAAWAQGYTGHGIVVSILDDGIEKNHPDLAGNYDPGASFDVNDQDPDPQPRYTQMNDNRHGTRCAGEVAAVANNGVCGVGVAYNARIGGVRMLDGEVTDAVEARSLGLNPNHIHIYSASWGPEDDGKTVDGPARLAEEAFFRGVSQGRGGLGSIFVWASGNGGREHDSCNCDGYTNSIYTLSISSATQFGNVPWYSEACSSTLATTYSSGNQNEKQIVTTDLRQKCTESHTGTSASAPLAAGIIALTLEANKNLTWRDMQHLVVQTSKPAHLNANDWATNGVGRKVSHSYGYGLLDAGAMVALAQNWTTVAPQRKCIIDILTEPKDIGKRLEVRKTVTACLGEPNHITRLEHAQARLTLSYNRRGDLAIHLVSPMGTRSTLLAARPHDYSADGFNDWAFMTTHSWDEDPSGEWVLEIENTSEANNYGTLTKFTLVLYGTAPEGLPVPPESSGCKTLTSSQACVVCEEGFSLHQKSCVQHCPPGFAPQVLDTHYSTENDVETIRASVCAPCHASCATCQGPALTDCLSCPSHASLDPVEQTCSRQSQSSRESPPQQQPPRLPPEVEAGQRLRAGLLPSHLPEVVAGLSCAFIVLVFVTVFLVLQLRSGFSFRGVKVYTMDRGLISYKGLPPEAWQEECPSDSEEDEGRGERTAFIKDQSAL

[4] = test system: NARC1; assay: Autoprocessing of NARC1 transiently expressed in COS-7 cells, Western blotting; assay type: cell-based, rat
Procedure: The wild-type NARC1-myc/His clone was transiently expressed in COS-7 cells. The cells were then harvested, lysed, and the protein extracted. Polyacrylamide gel electrophoresis was then carried out on the protein extracts, followed by Western blotting. The resulting membranes were probed using both anti-myc- and NARC1-specific antibodies. Routine techniques and protocols were followed. See, e.g., Ausubel et al.(1998), supra.
This cleavage event maps to approximately the junction between the pro-domain and the enzymatic domain.
Autoprocessing of NARC1 was investigated as follows. COS-7 cells were co-transfected with the following EGFP and myc plasmids: (A) wild-type NARC1-myc and wild-type NARC1-EGFP; (B) S385A NARC1-myc and S385A NARC1-EGFP; and (C) wild-type NARC1-myc and S385A NARC1-myc. The cells were then harvested, lysed, and the protein extracted. Polyacrylamide gel electrophoresis was then carried out on the protein extracts, followed by Western blotting. The resulting membranes were sequentially probed using first the anti-myc and then the anti-EGFP monoclonal antibodies (Abs). Thus, the experiment allowed sequential detection of the separate NARC1 products encoded from the two co-transfected plasmids.
As indicated above, a series of C-terminal truncation mutants were generated. The truncation NARC1-myc/His clones were transiently expressed in COS-7 cells. The cells were then harvested, lysed, the protein extracted, and polyacrylamide gel electrophoresis carried out on the protein extracts. Western analysis was then carried out using both anti-myc and NARC1-specific antibodies.

[5] = target: T1, NARC1 (Rattus norvegicus, UniProt P59996); assay: Autoprocessing of NARC1 expressed in E. coli
T1 construct: made in house; host or cells: E. coli
Procedure: The N-terminus of the processed protein was determined by protein microsequencing.

[6] = test system: cerebellar granule neurons (CGNs); assay: Apoptosis after transient expression of NARC1-EGFP constructs in CGNs, Laser-Scanning Cytometry; assay type: cell-based, rat; details: EGFP construct transiently expressed in CGNs, percentage of GFP-positive cells undergoing apoptosis
Excerpt: Cerebellar granule neurons (CGNs) were transfected with a NARC1-enhanced green fluorescent protein (EGFP) expression construct (with the EGFP sequences located at the carboxy terminus of the fusion protein). Unless otherwise indicated, the construct utilized in the following experiments contained 2073 base pairs of the rat NARC1 transcript set forth in FIG. 5. Specifically, this corresponds to nucleotides 205-2277 and amino acid residues 56-746 of SEQ ID NO:4 and SEQ ID NO:3, respectively. The polypeptide sequence encoded by the NARC1 insert utilized herein has been set forth as SEQ ID NO:9 herein. The nucleotide sequence of this insert has been set forth as SEQ ID NO:10.
To investigate NARC1-mediated neuronal cell death, transient expression of the EGFP clones was carried out in cerebellar granule neurons (CGNs). These studies are set forth in detail as follows.

[7] = test system: SY5Y cells; assay: NARC1 overexpression in SY5Y cells, nuclear condensation by Hoechst assay; assay type: cell-based, human
Procedure: Wild-type and mutant NARC1 were overexpressed in SY5Y cells (a human neuroblastoma cell line). Nuclear condensation was assessed by Hoechst assay.

[8] = test system: Ntera2 cells; assay: NARC1-EGFP transfection of Ntera2 cells, nuclear area condensation; assay type: cell-based, human; details: C-terminal EGFP constructs, 24 hours
Procedure: Specifically, Ntera2 cells were transfected with C-terminal EGFP constructs of wild-type NARC1, each of the point-mutant NARC1s, and caspase 9. At 24 hours, nuclear area condensation was assessed for the entire Ntera2 cell population and compared to nuclear area condensation for the transfected cell population.

## Aminoethyl-benzene sulfonyl fluoride [AEBSF]
[1]; 24-hour exposure
  Rescue of cell death in NARC1 transfectants: dose-dependent rescue of cell death
[1]; 48-hour exposure
  Toxicity: appeared toxic
[2]
  Rescue of Caspase 9-induced cell death: substantial rescue

## α1-PDX: α1-antitrypsin variant in which reactive center ALA-ILE-PRO-MET is replaced by ARG-ILE-PRO-ARG
[3]
  Inhibition of cleavage of viral envelope glycoproteins, including HIV gp160: inhibit the cleavage of viral envelope glycoproteins

B1: wild-type NARC1: rat NARC1 subtilase-like protein, residues 56-746 of SEQ ID NO:3, expressed as C-terminal EGFP or myc/His fusion (protein)
chain: MGIRCSTWLRWPLSPQLLLLLLLCPTGSRAQDEDGDYEELMLALPSQEDSLVDEASHVATATFRRCSKEAWRLPGTYVVVLMEETQRLQVEQTAHRLQTWAARRGYVIKVLHVFYDLFPGFLVKMSSDLLGLALKLPHVEYIEEDSLVFAQSIPWNLERIIPAWQQTEEDSSPDGSSQVEVYLLDTSIQSGHREIEGRVTITDFNSVPEEDGTRFHRQASKCDSHGTHLAGVVSGRDAGVAKGTSLHSLRVLNCQGKGTVSGTLIGLEFIRKSQLIQPSGPLVVLLPLAGGYSRILNTACQRLARTGVVLVAAAGNFRDDACLYSPASAPEVITVGATNAQDQPVTLGTLGTNFGRCVDLFAPGKDIIGASSDCSTCYMSQSGTSQAAAHVAGIVAMMLNRDPALTLAELRQRLILFSTKDVINMAWFPEDQRVLTPNRVATLPPSTQETGGQLLCRTVWSAHSGPTRTATATARCAPEEELLSCSSFSRSGRRRGDRIEAIGGQQVCKALNAFGGEGVYAVARCCLLPRVNCSIHNTPAARAGPQTPVHCHQKDHVLTGCSFHWEVENLRAQQQPLLRSRHQPGQCVGHQEASVHASCCHAPGLECKIKEHGIAGPAEQVTVACEAGWTLTGCNVLPGASLPLGAYSVDNVCVARIRDAGRADRTSEEATVAAAICCRSRPSAKASWVHQ
modifications: C-terminal EGFP or myc/His tag; rattus norvegicus
[4]; C-terminal myc/His fusion transiently expressed in COS-7 cells, 60 kD processing product on Western blot
  Autoprocessing Activity: normal autoprocessing
[4]; COS-7 cells co-transfected with wild-type and S385A NARC1 carrying different tags, anti-myc then anti-EGFP Western
  Intermolecular cleavage of co-expressed S385A mutant: absence of intermolecular cleavage
[5]
  Autoprocessing: underwent autoprocessing
[6]
  Resulting Cell Death Activity: moderately pro-apoptotic
[6]; listed as NARC1-EGFP
  Resulting Cell Death Activity: increase in apoptosis
[7]
  Promotion of cell death (nuclear condensation): does not promote cell death
[8]
  Sensitivity of cells to expression (nuclear area condensation): some sensitivity
